What was measured:
[1] = molecular target: T1, Ins 5 type mutant CALR protein on UT-7/TPO CALR Ins 5 cells (UniProt P27797 18-417); experiment: cell-based or functional assay
T1 sequence (looked up): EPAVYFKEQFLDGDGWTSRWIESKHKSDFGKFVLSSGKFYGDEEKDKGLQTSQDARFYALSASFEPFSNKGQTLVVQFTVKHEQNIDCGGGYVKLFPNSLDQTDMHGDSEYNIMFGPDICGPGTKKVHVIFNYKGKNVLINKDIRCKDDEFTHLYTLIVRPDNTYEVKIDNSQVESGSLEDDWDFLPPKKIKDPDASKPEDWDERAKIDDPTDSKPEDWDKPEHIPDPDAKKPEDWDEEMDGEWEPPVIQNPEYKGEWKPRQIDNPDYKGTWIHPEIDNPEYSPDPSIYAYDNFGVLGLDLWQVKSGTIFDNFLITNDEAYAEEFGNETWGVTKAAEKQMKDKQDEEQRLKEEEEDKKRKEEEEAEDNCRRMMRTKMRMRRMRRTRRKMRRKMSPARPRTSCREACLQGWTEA

[2] = molecular target: T2, protein having an Fc region and a His-tag added to the N-terminus of SEQ ID NO: 1; experiment: BLItz biolayer interferometry, Fc/His-SEQ ID NO: 1 protein on the biosensor
T2 construct: also called mutant CALR protein (antigen of the BLItz measurement); not shown: Fc region and His-tag at the N-terminus
T2 chain: RRMMRTKMRMRRM
Summary of the method: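 The Fc/His-tagged protein was loaded at 0.1 mg/mL onto Anti-Penta-HIS or Protein A biosensors. Antibodies were run at 500, 100 and 50 nM by biolayer interferometry, and the dissociation constant was derived from these binding curves.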

[3] = molecular target: T1, Ins 5 type mutant CALR protein on …; experiment: cell-based or functional assay; remark: listed apart in the source

B1: B3 chimeric antibody (antibody, human IgG1, kappa, L234A L235A)
heavy: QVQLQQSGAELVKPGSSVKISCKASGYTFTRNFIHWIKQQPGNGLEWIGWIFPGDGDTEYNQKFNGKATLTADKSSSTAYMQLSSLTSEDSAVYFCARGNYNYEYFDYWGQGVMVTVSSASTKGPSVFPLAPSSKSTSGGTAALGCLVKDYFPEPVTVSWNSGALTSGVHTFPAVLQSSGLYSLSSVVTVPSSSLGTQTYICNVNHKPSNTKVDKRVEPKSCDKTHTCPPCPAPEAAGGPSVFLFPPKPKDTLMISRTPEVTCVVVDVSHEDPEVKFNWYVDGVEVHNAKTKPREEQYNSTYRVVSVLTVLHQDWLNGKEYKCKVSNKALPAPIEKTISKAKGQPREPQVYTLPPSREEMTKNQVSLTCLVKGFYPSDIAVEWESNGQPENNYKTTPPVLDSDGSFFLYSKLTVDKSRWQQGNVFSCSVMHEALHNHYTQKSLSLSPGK
light: DIQMTQSPASLSASLGETVSIECLASEDIYSYLAWYQQKPGKSPQLLIFAANRLQDGVPSRFSGSGSGTQFSLKISGMQPEDEGDYFCLQGSKFPYTFGPGTKLELNRTVAAPSVFIFPPSDEQLKSGTASVVCLLNNFYPREAKVQWKVDNALQSGNSQESVTEQDSKDSTYSLSSTLTLSKADYEKHKVYACEVTHQGLSSPVTKSFNRGEC
notes: monospecific anti-mutant CALR antibody, no CD3 arm
B1 was tested, and the “EC50 of cytotoxic activity (calcein release, T-LAK effector cells)” value (“EC50 … (calcein release, T-LAK effector cells)” below) [1] was greater than 10 nM and the Kd [2] was less than 1e-06 µM.

B2: Antibody 15 (bispecific antibody, human IgG1, kappa, L234A L235A)
heavy: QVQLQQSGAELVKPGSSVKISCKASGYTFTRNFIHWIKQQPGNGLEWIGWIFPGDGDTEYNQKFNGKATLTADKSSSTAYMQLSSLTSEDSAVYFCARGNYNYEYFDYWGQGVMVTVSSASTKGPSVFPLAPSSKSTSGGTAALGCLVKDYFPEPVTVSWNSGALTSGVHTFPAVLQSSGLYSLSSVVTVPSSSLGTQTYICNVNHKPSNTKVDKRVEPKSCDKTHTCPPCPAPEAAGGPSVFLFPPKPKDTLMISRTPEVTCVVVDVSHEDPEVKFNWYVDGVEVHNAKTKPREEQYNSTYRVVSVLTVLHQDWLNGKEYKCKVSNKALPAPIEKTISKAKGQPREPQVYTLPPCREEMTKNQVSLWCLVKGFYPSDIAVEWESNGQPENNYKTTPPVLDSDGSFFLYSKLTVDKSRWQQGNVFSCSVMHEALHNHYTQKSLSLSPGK
light: DIQMTQSPASLSASLGETVSIECLASEDIYSYLAWYQQKPGKSPQLLIFAANRLQDGVPSRFSGSGSGTQFSLKISGMQPEDEGDYFCLQGSKFPYTFGPGTKLELNRTVAAPSVFIFPPSDEQLKSGTASVVCLLNNFYPREAKVQWKVDNALQSGNSQESVTEQDSKDSTYSLSSTLTLSKADYEKHKVYACEVTHQGLSSPVTKSFNRGEC
chain: QVQLVQSGGGVVQPGRSLRLSCKASGYTFTRYTMHWVRQAPGKGLEWIGYINPSRGYTNYNQKVKDRFTISRDNSKNTAFLQMDSLRPEDTGVYFCARYYDDHYSLDYWGQGTPVTVSSGGGGSGGGGSGGGGSDIQMTQSPSSLSASVGDRVTITCSASSSVSYMNWYQQTPGKAPKRWIYDTSKLASGVPSRFSGSGSGTDYTFTISSLQPEDIATYYCQQWSSNPFTFGQGTKLQITREPKSCDKTHTCPPCPAPEAAGGPSVFLFPPKPKDTLMISRTPEVTCVVVDVSHEDPEVKFNWYVDGVEVHNAKTKPREEQYNSTYRVVSVLTVLHQDWLNGKEYKCKVSNKALPAPIEKTISKAKGQPREPQVCTLPPSREEMTKNQVSLSCAVKGFYPSDIAVEWESNGQPENNYKTTPPVLDSDGSFFLVSKLTVDKSRWQQGNVFSCSVMHEALHNHYTQKSLSLSPGK
notes: B3 half IgG hetero-associated by knob-into-hole with hOKT3 scFv-Fc
B2 was tested, and the “EC50 … (calcein release, T-LAK effector cells)” value [1] was 1.29 nM and the Kd [2] was 0.00668 µM.

B3: Antibody 13 (bispecific antibody, human IgG1, kappa, L234A L235A)
heavy 1: not shown
heavy 2: QVQLQQSGAELVKPGSSVKISCKASGYTFTRNFIHWIKQQPGNGLEWIGWIFPGDGDTEYNQKFNGKATLTADKSSSTAYMQLSSLTSEDSAVYFCARGNYNYEYFDYWGQGVMVTVSSASTKGPSVFPLAPSSKSTSGGTAALGCLVKDYFPEPVTVSWNSGALTSGVHTFPAVLQSSGLYSLSSVVTVPSSSLGTQTYICNVNHKPSNTKVDKRVEPKSCDKTHTCPPCPAPEAAGGPSVFLFPPKPKDTLMISRTPEVTCVVVDVSHEDPEVKFNWYVDGVEVHNAKTKPREEQYNSTYRVVSVLTVLHQDWLNGKEYKCKVSNKALPAPIEKTISKAKGQPREPQVCTLPPSREEMTKNQVSLSCAVKGFYPSDIAVEWESNGQPENNYKTTPPVLDSDGSFFLVSKLTVDKSRWQQGNVFSCSVMHEALHNHYTQKSLSLSPGKGGGGSQVQLVQSGGGVVQPGRSLRLSCKASGYTFTRYTMHWVRQAPGKGLEWIGYINPSRGYTNYNQKVKDRFTISRDNSKNTAFLQMDSLRPEDTGVYFCARYYDDHYSLDYWGQGTPVTVSSGGGGSGGGGSGGGGSDIQMTQSPSSLSASVGDRVTITCSASSSVSYMNWYQQTPGKAPKRWIYDTSKLASGVPSRFSGSGSGTDYTFTISSLQPEDIATYYCQQWSSNPFTFGQGTKLQITR
light: DIQMTQSPASLSASLGETVSIECLASEDIYSYLAWYQQKPGKSPQLLIFAANRLQDGVPSRFSGSGSGTQFSLKISGMQPEDEGDYFCLQGSKFPYTFGPGTKLELNRTVAAPSVFIFPPSDEQLKSGTASVVCLLNNFYPREAKVQWKVDNALQSGNSQESVTEQDSKDSTYSLSSTLTLSKADYEKHKVYACEVTHQGLSSPVTKSFNRGEC
notes: B3 IgG with knob-into-hole heavy chains, hOKT3 scFv fused to the C-terminus of one heavy chain
For B3, the “EC50 … (calcein release, T-LAK effector cells)” value [1] was 4.47 nM and the Kd [2] was less than 1e-06 µM.

B4: Antibody 14 (bispecific antibody, human IgG1, kappa, L234A L235A)
heavy: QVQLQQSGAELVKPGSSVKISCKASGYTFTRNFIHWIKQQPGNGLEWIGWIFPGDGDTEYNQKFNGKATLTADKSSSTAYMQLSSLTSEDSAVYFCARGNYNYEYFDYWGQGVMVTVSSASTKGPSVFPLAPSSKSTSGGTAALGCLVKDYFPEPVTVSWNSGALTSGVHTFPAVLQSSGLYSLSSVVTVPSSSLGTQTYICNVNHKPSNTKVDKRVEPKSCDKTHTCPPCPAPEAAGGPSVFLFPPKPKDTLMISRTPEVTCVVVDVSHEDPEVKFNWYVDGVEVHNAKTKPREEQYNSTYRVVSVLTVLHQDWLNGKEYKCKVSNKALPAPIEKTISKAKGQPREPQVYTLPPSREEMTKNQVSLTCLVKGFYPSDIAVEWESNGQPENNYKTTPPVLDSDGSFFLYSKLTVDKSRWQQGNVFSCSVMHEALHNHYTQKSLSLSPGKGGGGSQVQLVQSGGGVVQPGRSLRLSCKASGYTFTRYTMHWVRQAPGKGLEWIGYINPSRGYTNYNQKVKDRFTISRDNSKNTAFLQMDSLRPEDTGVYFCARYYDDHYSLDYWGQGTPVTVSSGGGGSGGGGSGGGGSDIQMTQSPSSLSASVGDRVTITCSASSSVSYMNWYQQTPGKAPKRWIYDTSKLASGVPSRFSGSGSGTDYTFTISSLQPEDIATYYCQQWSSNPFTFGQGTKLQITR
light: DIQMTQSPASLSASLGETVSIECLASEDIYSYLAWYQQKPGKSPQLLIFAANRLQDGVPSRFSGSGSGTQFSLKISGMQPEDEGDYFCLQGSKFPYTFGPGTKLELNRTVAAPSVFIFPPSDEQLKSGTASVVCLLNNFYPREAKVQWKVDNALQSGNSQESVTEQDSKDSTYSLSSTLTLSKADYEKHKVYACEVTHQGLSSPVTKSFNRGEC
notes: B3 IgG with hOKT3 scFv fused to the heavy chain C-terminus
In the case of B4, the “EC50 … (calcein release, T-LAK effector cells)” value [1] is reported as 0.989 nM and the Kd [2] is reported as less than 1e-06 µM.

B5: Antibody 86 (bispecific antibody)
chain 1: not shown
chain 2: DIQMTQSPSSLSASVGDRVTITCLASEDIYSYLAWYQQKPGKAPKLLIFAANRLQSGVPSRFSGSGSGTDFTLTISSLQPEDFATYYCLQGSKFPYTFGPGTKVDIKRTVAAPSVFIFPPSDEQLKSGTASVVCLLNNFYPREAKVQWKVDNALQSGNSQESVTEQDSKDSTYSLSSTLTLSKADYEKHKVYACEVTHQGLSSPVTKSFNRGEC
B5 was tested, and the Kd [2] was less than 1e-06 µM and the “EC50 of cytotoxic activity (pM)” value [3] was 58 pM.

B6: Antibody 27 (bispecific antibody)
heavy: QVQLQQSGAELVKPGSSVKISCKASGYTFTRNFIHWIKQQPGNGLEWIGWIFPGDGDTEYNQKFNGKATLTADKSSSTAYMQLSSLTSEDSAVYFCARGNYNYEYFDYWGQGVMVTVSSASTKGPSVFPLAPSSKSTSGGTAALGCLVKDYFPEPVTVSWNSGALTSGVHTFPAVLQSSGLYSLSSVVTVPSSSLGTQTYICNVNHKPSNTKVDKRVEPKSCGGGGSQVQLVQSGGGVVQPGRSLRLSCKASGYTFTRYTMHWVRQAPGKGLEWIGYINPSRGYTNYNQKVKDRFTISRDNSKNTAFLQMDSLRPEDTGVYFCARYYDDHYSLDYWGQGTPVTVSSGGGGSGGGGSGGGGSDIQMTQSPSSLSASVGDRVTITCSASSSVSYMNWYQQTPGKAPKRWIYDTSKLASGVPSRFSGSGSGTDYTFTISSLQPEDIATYYCQQWSSNPFTFGQGTKLQITRHHHHHH
light: QVQLVQSGGGVVQPGRSLRLSCKASGYTFTRYTMHWVRQAPGKGLEWIGYINPSRGYTNYNQKVKDRFTISRDNSKNTAFLQMDSLRPEDTGVYFCARYYDDHYSLDYWGQGTPVTVSSGGGGSGGGGSGGGGSDIQMTQSPSSLSASVGDRVTITCSASSSVSYMNWYQQTPGKAPKRWIYDTSKLASGVPSRFSGSGSGTDYTFTISSLQPEDIATYYCQQWSSNPFTFGQGTKLQITRGGGGSDIQMTQSPASLSASLGETVSIECLASEDIYSYLAWYQQKPGKSPQLLIFAANRLQDGVPSRFSGSGSGTQFSLKISGMQPEDEGDYFCLQGSKFPYTFGPGTKLELNRTVAAPSVFIFPPSDEQLKSGTASVVCLLNNFYPREAKVQWKVDNALQSGNSQESVTEQDSKDSTYSLSSTLTLSKADYEKHKVYACEVTHQGLSSPVTKSFNRGEC
notes: B3 Fab with hOKT3 scFv at the heavy chain C-terminus and at the light chain N-terminus
With B6 the “EC50 … (calcein release, T-LAK effector cells)” value [1] was 0.036 nM and the Kd [2] was 0.0136 µM.

B7: Antibody 9 (bispecific antibody)
chain: QVQLQQSGAELVKPGSSVKISCKASGYTFTRNFIHWIKQQPGNGLEWIGWIFPGDGDTEYNQKFNGKATLTADKSSSTAYMQLSSLTSEDSAVYFCARGNYNYEYFDYWGQGVMVTVSSGGGGSGGGGSGGGGSDIQMTQSPASLSASLGETVSIECLASEDIYSYLAWYQQKPGKSPQLLIFAANRLQDGVPSRFSGSGSGTQFSLKISGMQPEDEGDYFCLQGSKFPYTFGPGTKLELNGGGGSQVQLVQSGGGVVQPGRSLRLSCKASGYTFTRYTMHWVRQAPGKGLEWIGYINPSRGYTNYNQKVKDRFTISRDNSKNTAFLQMDSLRPEDTGVYFCARYYDDHYSLDYWGQGTPVTVSSGGGGSGGGGSGGGGSDIQMTQSPSSLSASVGDRVTITCSASSSVSYMNWYQQTPGKAPKRWIYDTSKLASGVPSRFSGSGSGTDYTFTISSLQPEDIATYYCQQWSSNPFTFGQGTKLQITRHHHHHH
notes: B3 VH-VL scFv and hOKT3 VH-VL scFv in one polypeptide, no Fc
B7 was tested, and the “EC50 … (calcein release, T-LAK effector cells)” value [1] was 1.53 nM and the Kd [2] was 0.00655 µM.

B8: Antibody 28 (bispecific antibody)
chain 1: QVTLKESGPVLVKPTETLTLTCTVSGYSITSDYAWNWIRQPPGKALEWLAYISYSGSTSYNPSLKSRLSITKDTSKSQVVLTMTNMDPVDTATYYCARDPPYYYGSWGQGTTVTVSSASTKGPSVFPLAPSSKSTSGGTAALGCLVKDYFPEPVTVSWNSGALTSGVHTFPAVLQSSGLYSLSSVVTVPSSSLGTQTYICNVNHKPSNTKVDKRVEPKSCGGGGSQVQLVQSGGGVVQPGRSLRLSCKASGYTFTRYTMHWVRQAPGKGLEWIGYINPSRGYTNYNQKVKDRFTISRDNSKNTAFLQMDSLRPEDTGVYFCARYYDDHYSLDYWGQGTPVTVSSGGGGSGGGGSGGGGSDIQMTQSPSSLSASVGDRVTITCSASSSVSYMNWYQQTPGKAPKRWIYDTSKLASGVPSRFSGSGSGTDYTFTISSLQPEDIATYYCQQWSSNPFTFGQGTKLQITRHHHHHH
chain 2: DVVMTQSPLSLPVTLGQPASISCKSSQSLLDSDGKTYLNWLQQRPGQSPRRLIYLVSKLDSGVPDRFSGSGSGTDFTLKISRVEAEDVGVYHCWQGTHFPYTFGGGTKVEIKRTVAAPSVFIFPPSDEQLKSGTASVVCLLNNFYPREAKVQWKVDNALQSGNSQESVTEQDSKDSTYSLSSTLTLSKADYEKHKVYACEVTHQGLSSPVTKSFNRGEC
notes: format not described
With B8 the “EC50 … (calcein release, T-LAK effector cells)” value [1] was 5.43 nM and the Kd [2] was 1480 µM.

B9: Antibody 29 (bispecific antibody)
chain 1: QVQLVQSGAEVKKPGASVKVSCKASGYSFTGYYIHWVRQAPGQGLEWIGYISAYNGASSYNQKFKGRATFTVDTSISTAYMELSRLRSDDTAVYYCASSMDYWGQGTLVTVSSASTKGPSVFPLAPSSKSTSGGTAALGCLVKDYFPEPVTVSWNSGALTSGVHTFPAVLQSSGLYSLSSVVTVPSSSLGTQTYICNVNHKPSNTKVDKRVEPKSCGGGGSQVQLVQSGGGVVQPGRSLRLSCKASGYTFTRYTMHWVRQAPGKGLEWIGYINPSRGYTNYNQKVKDRFTISRDNSKNTAFLQMDSLRPEDTGVYFCARYYDDHYSLDYWGQGTPVTVSSGGGGSGGGGSGGGGSDIQMTQSPSSLSASVGDRVTITCSASSSVSYMNWYQQTPGKAPKRWIYDTSKLASGVPSRFSGSGSGTDYTFTISSLQPEDIATYYCQQWSSNPFTFGQGTKLQITRHHHHHH
chain 2: DVVMTQSPLSLPVTLGQPASISCKSSQSLLDSDGKTYLNWLQQRPGQSPKRLIYLVSKLDSGVPDRFSGSGSGTDFTLKISRVEAEDVGVYHCWQGTHFPYTFGQGTKLEIKRTVAAPSVFIFPPSDEQLKSGTASVVCLLNNFYPREAKVQWKVDNALQSGNSQESVTEQDSKDSTYSLSSTLTLSKADYEKHKVYACEVTHQGLSSPVTKSFNRGEC
notes: format not described
In the case of B9, the “EC50 … (calcein release, T-LAK effector cells)” value [1] is reported as 0.634 nM and the Kd [2] is reported as 5.7 µM.

From patent US20240092890A1 (JUNTENDO EDUCATIONAL FOUNDATION, published 2024)
